Results reported in patent publication US20220226493A1.

B1: CK6-SET0207 (CK6 with Fc modifications D265C H435A) (antibody, V domains shown)
VH: QVQLVQSGAAVKKPGESLKISCKGSGYRFTSYWIGWVRQMPGKGLEWMGIIYPGDSDTRYSPSFQGQVTISAGKSISTAYLQWSSLKASDTAMYYCARHGRGYNGYEGAFDIWGQGTMVTVSS
VL: AIQLTQSPSSLSASVGDRVTITCRASQGISSALAWYQQKPGKAPKLLIYDASSLESGVPSRFSGSGSGTDFTLTISSLQPEDFATYYCQQFNSYPLTFGGGTKVEIK
B2: CK6-DM (anti-CD117 antibody CK6 with Fc modification S239C conjugated to duocarmycin) (antibody, DAR 1.65, V domains shown)
VH: B1 VH
VL: B1 VL
B3: CK6-PBD (anti-CD117 antibody CK6 with Fc modification S239C conjugated to PBD) (antibody, DAR 1.7, V domains shown)
VH: B1 VH
VL: B1 VL
B4: CK6-PNU (anti-CD117 antibody CK6 with Fc modification S239C conjugated to PNU) (antibody, DAR 1.4, V domains shown)
VH: B1 VH
VL: B1 VL
B5: CK6-D4 (anti-CD117 antibody CK6 with Fc modification S239C conjugated to calicheamicin) (antibody, DAR 1.72, V domains shown)
VH: B1 VH
VL: B1 VL

Biological target: CD117 on Kasumi-1 cells, P10721
Test: cell-based or functional assay

Point of comparison: B4, % Efficacy (in vitro Kasumi cell killing assay, CellTiter-Glo) 85.7%. Against it:
- B1 — lower, 0%
- B2 — lower, 0%
- B3 — lower, 60.7%
- B5 — lower, 0%
